# Source: US20240301385, “DNA MODIFYING ENZYMES AND ACTIVE FRAGMENTS AND VARIANTS THEREOF AND METHODS OF USE” (LIFEEDIT THERAPEUTICS, INC., published 2024)
# What was measured:
# [1] = target: T1, APG00868.1-L16-nAPG07433.1 (truncated deaminase) (synthetic); assay: cell_activity; HEK293FT; PAM SEQ 152; details: tags: SV40 NLS, 3xFLAG N-term; nucleoplasmin NLS C-term
# T1 chain: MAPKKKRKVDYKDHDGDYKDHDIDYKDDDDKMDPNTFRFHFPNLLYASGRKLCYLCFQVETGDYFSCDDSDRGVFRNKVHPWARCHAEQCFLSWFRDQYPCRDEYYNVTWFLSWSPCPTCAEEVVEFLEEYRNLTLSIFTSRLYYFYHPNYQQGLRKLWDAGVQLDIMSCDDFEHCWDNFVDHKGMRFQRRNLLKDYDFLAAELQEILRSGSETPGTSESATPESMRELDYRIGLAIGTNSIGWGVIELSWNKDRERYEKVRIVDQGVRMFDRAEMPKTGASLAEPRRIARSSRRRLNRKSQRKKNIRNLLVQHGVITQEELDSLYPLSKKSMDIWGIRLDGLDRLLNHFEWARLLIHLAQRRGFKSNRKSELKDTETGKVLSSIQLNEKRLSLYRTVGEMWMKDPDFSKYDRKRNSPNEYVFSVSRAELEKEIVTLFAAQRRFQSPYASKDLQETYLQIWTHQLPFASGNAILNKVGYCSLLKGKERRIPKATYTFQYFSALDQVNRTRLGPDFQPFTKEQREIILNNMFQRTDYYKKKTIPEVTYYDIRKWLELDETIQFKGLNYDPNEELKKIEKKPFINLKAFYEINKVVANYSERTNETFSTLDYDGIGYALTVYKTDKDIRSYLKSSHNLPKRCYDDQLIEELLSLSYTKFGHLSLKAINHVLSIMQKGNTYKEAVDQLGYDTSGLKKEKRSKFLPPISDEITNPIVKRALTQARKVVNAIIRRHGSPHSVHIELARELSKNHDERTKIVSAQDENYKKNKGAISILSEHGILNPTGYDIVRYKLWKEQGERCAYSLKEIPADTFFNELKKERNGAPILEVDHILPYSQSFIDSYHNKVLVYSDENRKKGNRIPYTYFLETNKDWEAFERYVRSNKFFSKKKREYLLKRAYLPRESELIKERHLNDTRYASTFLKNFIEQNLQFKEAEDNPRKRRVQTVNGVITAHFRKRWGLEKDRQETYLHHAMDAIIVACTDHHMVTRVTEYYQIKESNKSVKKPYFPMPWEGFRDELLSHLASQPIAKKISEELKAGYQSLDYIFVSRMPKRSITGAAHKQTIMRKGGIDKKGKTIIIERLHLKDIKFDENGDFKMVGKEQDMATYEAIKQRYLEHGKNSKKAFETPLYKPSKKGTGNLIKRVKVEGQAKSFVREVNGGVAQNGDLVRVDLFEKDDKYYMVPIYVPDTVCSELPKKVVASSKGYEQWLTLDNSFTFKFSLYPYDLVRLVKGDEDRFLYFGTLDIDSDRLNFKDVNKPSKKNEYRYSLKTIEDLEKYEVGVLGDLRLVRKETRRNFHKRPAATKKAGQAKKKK
# Summary of the method: (§1)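 Editing read out by next-generation sequencing (MiSeq 2×250) of PCR amplicons spanning the target site, analysed for INDELs or % cytosine conversion per position (position 1 nearest PAM).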
# [2] = target: APG05840.1-L16-nAPG07433.1 (truncated deaminase) (synthetic); assay: cell_activity; HEK293FT; PAM SEQ 152; details: tags: SV40 NLS, 3xFLAG N-term; nucleoplasmin NLS C-term
# Summary of the method: as §1
Binder,activity [1],activity [2]
SGN001101 sgRNA ; SGN001101 target (ssRNA ; dsDNA) RNA: AUAUUUUCUUUAAUGGUGCCAGGCAGUCAUAGUUCCAUUAAAGCCAAAAGUGGCUUUGAUGUUUCUAUGAUAAGGGUUUCGACCCGUGGCGUCGGGGAUCGCCUGCCCAUUGAAAUGGGCUUCUCCCCAU DNA 1: ATATTTTCTTTAATGGTGCCAGGCA DNA 2: TGCCTGGCACCATTAAAGAAAATAT,20.4 % mutated reads,23.8 % mutated reads
SGN000929 sgRNA ; SGN000929 target (ssRNA ; dsDNA) RNA: AUCUGGAGGGAACUUACAGCAUAUGGUCAUAGUUCCAUGAAAGCCAAAAGUGGCUUUGAUGUUUCUAUGAUAAGGGUUUCGGCCCGUGGCGUCGGGGAUCGCCUGCCCAUUCCGAUGGGCUUCUCCCCAUUUAUU DNA 1: ATCTGGAGGGAACTTACAGCATATG DNA 2: CATATGCTGTAAGTTCCCTCCAGAT,14.6 % mutated reads,22.3 % mutated reads
SGN000169 sgRNA ; SGN000169 target (ssRNA ; dsDNA) RNA: CACAUCUCGAGCAAGACGUUGUCAUAGUUCCAUUAAAGCCAAAAGUGGCUUUGAUGUUUCUAUGAUAAGGGUUUCGACCCGUGGCGUCGGGGAUCGCCUGCCCAUUGAAAUGGGCUUCUCCCCAUUUAUU DNA 1: CACATCTCGAGCAAGACGTT DNA 2: AACGTCTTGCTCGAGATGTG,22.4 % mutated reads,30.2 % mutated reads
